Measured values from patent US20060222643A1 (Chugai, published 2006).

Tests used:
[1] = target: T1, human Mpl expressed on BaF3 cells (BaF3-human Mpl) (human, UniProt P40238 26-635); test: cell-based or functional assay
T1 sequence: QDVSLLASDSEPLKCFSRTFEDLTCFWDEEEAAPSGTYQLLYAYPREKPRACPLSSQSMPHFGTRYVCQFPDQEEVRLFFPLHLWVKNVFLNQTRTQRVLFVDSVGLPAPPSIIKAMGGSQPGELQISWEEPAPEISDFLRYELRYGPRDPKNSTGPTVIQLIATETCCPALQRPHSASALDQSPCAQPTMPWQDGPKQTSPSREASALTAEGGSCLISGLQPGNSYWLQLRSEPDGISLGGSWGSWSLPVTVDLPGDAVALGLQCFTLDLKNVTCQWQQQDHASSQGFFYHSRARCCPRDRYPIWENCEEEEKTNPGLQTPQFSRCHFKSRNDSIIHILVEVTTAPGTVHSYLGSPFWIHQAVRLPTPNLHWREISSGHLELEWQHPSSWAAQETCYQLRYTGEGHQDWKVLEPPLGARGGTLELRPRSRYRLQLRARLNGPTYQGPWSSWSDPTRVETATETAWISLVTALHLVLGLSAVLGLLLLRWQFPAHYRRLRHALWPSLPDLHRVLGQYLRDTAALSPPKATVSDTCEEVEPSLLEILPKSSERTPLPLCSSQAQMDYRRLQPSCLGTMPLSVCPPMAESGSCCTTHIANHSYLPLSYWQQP

[2] = target: T2, cynomolgus monkey Mpl expressed on CHO cells (CHO-monkey Mpl) (cynomolgus monkey, UniProt P40238 26-635 (human entry)); test: flow cytometry on CHO cells
T2 construct: pCXND3-monkey Mpl-His in CHO-DG44; also called monkey Mpl-His
T2 chain: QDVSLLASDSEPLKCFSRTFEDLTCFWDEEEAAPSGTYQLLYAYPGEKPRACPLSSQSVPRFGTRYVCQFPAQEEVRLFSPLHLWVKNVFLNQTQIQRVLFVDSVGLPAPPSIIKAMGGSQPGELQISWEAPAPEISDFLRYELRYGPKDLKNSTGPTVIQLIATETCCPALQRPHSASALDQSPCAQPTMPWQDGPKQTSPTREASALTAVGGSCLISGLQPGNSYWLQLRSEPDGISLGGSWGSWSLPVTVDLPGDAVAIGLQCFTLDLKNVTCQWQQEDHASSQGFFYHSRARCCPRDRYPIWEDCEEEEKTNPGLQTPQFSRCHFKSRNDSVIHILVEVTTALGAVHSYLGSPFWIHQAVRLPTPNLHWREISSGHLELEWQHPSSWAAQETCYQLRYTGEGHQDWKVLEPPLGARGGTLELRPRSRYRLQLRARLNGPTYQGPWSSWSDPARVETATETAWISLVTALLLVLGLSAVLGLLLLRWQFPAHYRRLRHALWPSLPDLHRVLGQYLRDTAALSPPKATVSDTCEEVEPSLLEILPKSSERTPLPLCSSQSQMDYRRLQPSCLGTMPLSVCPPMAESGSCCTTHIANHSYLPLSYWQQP

[3] = target: T3, human Mpl-IgG Fc fusion protein (human, UniProt P40238 26-491); test: SPR, Biacore 2000, human Mpl-IgG Fc immobilized on CM5 by amine coupling, 1.25 to 20 µg/mL VB22B IgG injected
T3 construct: Expressed in CHO-DG44 with a 19-residue signal peptide from a human IgG H chain variable region (left out); also called hMpl-Fc; hMPL-Fc; not shown: Fc region of human IgG-gamma1 (a region downstream of Asp 216)
T3 sequence: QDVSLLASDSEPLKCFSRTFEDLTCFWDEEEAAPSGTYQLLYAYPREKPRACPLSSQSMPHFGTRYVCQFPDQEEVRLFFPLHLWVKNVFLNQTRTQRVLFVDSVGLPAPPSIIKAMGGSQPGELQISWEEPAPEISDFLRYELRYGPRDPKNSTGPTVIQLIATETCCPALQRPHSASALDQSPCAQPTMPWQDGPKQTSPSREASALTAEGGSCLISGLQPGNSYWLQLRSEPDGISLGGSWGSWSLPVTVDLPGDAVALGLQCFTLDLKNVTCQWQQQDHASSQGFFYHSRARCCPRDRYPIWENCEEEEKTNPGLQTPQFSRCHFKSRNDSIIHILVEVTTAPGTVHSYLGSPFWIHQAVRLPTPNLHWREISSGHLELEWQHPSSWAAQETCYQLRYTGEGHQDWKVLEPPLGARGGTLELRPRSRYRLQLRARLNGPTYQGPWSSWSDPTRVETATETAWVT
Procedure: Since the anti-human Mpl antibody VB22B binds to soluble recombinant Mpl, kinetic analyses of the antigen-antibody reaction between VB22B IgG and human Mpl-IgG Fc fusion protein were carried out as described in Example 1.4. The Sensor Chip CM5 (Biacore) was placed in Biacore 2000 (Biacore), and human Mpl-IgG Fc fusion protein was immobilized onto the chip by amine-coupling methods. Then, 1.25 to 20 μg/mL of VB22B IgG solution was prepared using HBS-EP Buffer (Biacore), and injected over the chip surface for 2 min to reveal the binding region. Then, HBS-EP Buffer was injected over the chip surface for 2 min to reveal the dissociation region. VB22B IgG bound to the human Mpl-IgG Fc fusion protein on the sensor chip was removed by injecting 10 mM NaOH over the sensor chip for 15 sec, and the chip was recovered. HBS-EP Buffer was used as the running buffer, and the flow rate was 20 μL/min. Using the BIAevaluation Version 3.1 (Biacore) software, the reaction rate constant at each concentration was calculated from the sensorgrams.

TPO-like agonistic activity, EC50 (growth of BaF3-human Mpl, WST-8) [1]: > 30 nM
binding result [2]: binds
Kd [3]: 1.67 nM
B1: anti-human Mpl antibody VB22B IgG (antibody, V domains shown)
VH: QVQLQQSGPELVKPGASVKISCKASGYAFTNSWMNWVKQRPGKGLEWIGRIYPGDGETIYNGKFRVKATLTADKSSSTAYMDISSLTSEDSAVYFCARGYDDYSFAYWGQGTLVTVSA
VL: DIVMTQAAPSIPVTPGESVSISCRSSKSLLHSNGNTYLYWFLQRPGQSPQLLIYRMSNLASGVPDRFSGSGSGTAFTLRISRVEAEDVGVYYCMQHIEYPFTFGSGTKLEIK
notes: also called murine antibody VB22B
